The target of assay [1] is T1, JEV SA14-14-2 envelope (E) protein on virions (Japanese encephalitis virus strain …, UniProt P0DOH7 295-794).
T1 chain: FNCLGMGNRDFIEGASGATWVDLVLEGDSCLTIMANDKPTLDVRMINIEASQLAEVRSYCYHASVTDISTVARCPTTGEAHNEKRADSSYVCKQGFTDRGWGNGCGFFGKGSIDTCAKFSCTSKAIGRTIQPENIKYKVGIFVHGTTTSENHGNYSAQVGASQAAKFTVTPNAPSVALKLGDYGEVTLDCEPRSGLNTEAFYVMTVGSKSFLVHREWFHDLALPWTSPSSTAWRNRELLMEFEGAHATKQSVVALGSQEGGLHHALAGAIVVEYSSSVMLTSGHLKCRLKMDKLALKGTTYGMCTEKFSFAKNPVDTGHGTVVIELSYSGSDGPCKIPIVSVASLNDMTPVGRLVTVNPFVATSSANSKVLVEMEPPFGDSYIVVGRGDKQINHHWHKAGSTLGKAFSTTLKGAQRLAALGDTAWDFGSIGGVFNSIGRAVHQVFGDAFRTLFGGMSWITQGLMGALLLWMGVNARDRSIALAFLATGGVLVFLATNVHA
Description: cell-based or functional assay.

Assay [2] addresses T1, JEV SA14-14-2 envelope (E) protein on …. Description: cell-based or functional assay.
For assay [3] the target is unchanged. In words: cell-based or functional assay.
Assay [4] deals with T2, DENV-3 (H87) virions (dengue virus type 3, strain H87, UniProt P27915 281-773).
T2 construct: mature
In words: ELISA, virion-coated plate. In general terms: ELISA stands for enzyme-linked immunosorbent assay.

For assay [5], the target named is T3, DENV-4 (814669) virions (dengue virus type 4, strain 814669, UniProt P09866 280-774).
T3 construct: mature
Description: ELISA, virion-coated plate.

Assay [6] concerns the target T4, Langat virus (LGTV) strain TP 21 virions (Langat virus, strain TP 21, UniProt P29837 281-776).
T4 construct: mature
T4 sequence: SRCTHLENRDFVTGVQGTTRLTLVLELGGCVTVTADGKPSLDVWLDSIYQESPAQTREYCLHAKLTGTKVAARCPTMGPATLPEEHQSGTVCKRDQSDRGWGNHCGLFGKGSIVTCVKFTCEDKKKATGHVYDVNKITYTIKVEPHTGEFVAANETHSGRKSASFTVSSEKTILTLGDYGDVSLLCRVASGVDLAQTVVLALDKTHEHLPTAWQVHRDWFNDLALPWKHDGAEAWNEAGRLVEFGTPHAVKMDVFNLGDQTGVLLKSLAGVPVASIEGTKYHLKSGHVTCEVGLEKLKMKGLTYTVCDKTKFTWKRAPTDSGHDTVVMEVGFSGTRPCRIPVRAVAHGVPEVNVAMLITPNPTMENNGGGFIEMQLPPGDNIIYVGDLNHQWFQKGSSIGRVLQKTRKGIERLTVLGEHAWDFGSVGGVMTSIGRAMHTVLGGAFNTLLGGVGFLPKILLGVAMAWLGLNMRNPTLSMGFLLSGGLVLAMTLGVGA
Description: ELISA, virion-coated plate.

Assay [7] has as its target T1, JEV SA14-14-2 envelope (E) protein on …. In words: ELISA, virion-coated plate, Fab from ~100 µg/ml.
Assay [8] has the same target. Description: ELISA on JEV virions (FIG. 4A), half maximum binding.
Assay [9] has as its target T5, recombinant JEV N-terminal 80% E protein (Japanese encephalitis virus strain …, UniProt P0DOH7 295-692).
T5 chain: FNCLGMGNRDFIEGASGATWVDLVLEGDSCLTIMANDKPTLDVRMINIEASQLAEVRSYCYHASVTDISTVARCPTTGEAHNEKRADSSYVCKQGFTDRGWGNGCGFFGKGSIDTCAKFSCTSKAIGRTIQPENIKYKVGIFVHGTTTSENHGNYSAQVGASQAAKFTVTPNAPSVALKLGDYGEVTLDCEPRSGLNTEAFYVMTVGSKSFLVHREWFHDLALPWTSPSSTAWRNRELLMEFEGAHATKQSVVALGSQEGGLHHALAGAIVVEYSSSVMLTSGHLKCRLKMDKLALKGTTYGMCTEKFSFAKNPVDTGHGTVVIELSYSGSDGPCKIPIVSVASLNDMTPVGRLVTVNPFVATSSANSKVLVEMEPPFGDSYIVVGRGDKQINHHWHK
Description: SPR (Biacore 3000), recombinant E immobilized, Fab in flow. On the technique in general: In SPR one partner is held on a chip, and binding of the other changes the refractive index at the surface.

Assay [10] addresses T1, JEV SA14-14-2 envelope (E) protein on …. Description: ELISA on JEV virions captured by HMAF, concentration at half-maximal binding.
The target is the same in assay [11]. Description: cell-based or functional assay.
The target of assay [12] is JEV strain JE 1991 (genotype I) E protein on virus (Japanese encephalitis virus, strain JE …). In words: cell-based or functional assay.
Assay [13] has as its target JEV strain JE B 1034/8 (genotype II) E protein on virus (Japanese encephalitis virus, strain JE …). In words: cell-based or functional assay.
Assay [14] addresses JEV strain Beijing (genotype III) E protein on virus (Japanese encephalitis virus, strain …). Description: cell-based or functional assay.
Assay [15] concerns the target JEV strain JKT 9092 (genotype IV) E protein on virus (Japanese encephalitis virus, strain JKT …). In words: cell-based or functional assay.
The target in assay [16] is T1, JEV SA14-14-2 envelope (E) protein on …. In words: cell-based or functional assay.
Assay [17] has the same target. Description: cell-based or functional assay.
For assay [18] the target is unchanged. In words: ELISA on JEV virions.
In assay [19] the target is T5, recombinant JEV N-terminal 80% E protein. Description: SPR, recombinant E immobilized.

Like-named read-outs stand apart in the source and are kept apart here. Bounds are passed on as bounds.

T3 sequence (P09866 280-774 limits assumed): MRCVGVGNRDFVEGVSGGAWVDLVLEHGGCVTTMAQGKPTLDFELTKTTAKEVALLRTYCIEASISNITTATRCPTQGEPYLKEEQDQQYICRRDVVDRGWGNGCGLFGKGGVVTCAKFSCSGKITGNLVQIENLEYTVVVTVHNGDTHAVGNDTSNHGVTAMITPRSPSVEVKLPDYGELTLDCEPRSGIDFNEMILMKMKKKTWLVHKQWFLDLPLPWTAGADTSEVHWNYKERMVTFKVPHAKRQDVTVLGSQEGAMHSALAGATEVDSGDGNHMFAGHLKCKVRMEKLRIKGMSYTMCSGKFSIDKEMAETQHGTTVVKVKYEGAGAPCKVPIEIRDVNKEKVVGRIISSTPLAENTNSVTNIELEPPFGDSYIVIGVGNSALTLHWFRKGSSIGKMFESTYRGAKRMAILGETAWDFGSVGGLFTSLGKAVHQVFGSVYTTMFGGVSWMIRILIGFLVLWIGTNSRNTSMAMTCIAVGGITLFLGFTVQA

B1: Fab E3 (Fab, V domains shown)
VH: EVQLLESGPGLVRPSQTLSLTCAVSGASISGPLSYWTWIRQSPGKKMEHIGSMFYSGNTYYNPSLKGRITMSVDTSRNQFSLNLNSVTVADTAVYFCARRRETELFGLPIDYWGQGILVTVSS
VL: ELTQSPATLSVSPGERATLSCRASERISSSYLSWYQQKPGQAPRLLMYGTSTRATGIPARFSGSGSGTDFTLTISSLQPEDFAVYFCQQDYNLPWTFGQGTKLEIKR
As usually defined, the EC50 is the concentration needed to bring the measured effect to its halfway point. Usually Kd stands for the free concentration of one partner at which half of the binding sites on the other are occupied at equilibrium, for simple one-to-one binding. The term koff denotes a measure of how fast the partners let go of each other. In general, kon refers to the second-order rate constant of association. Regarding B1, the “PRNT50 titer” value in assay [1] and in [3] was 84.9 nM throughout. In addition, the “PRNT50” value in assay [2] was 84.9 nM. Besides, the “ELISA titer (1/log10 dilution)” value in assay [4] is under 1 log10 reciprocal dilution; in assay [5] it was under 1 log10 reciprocal dilution; in assay [7], 4.2 log10 reciprocal dilution. The binding result in assay [4], in assay [5] and in assay [6] was “no binding” in each case. Besides, the EC50 in assay [8] is about 100 nM. Besides, the Kd was 0.35 nM in [9] and 0.98 nM in assay [10]. For the same molecule, the koff in assay [9] was 3.6e-05 s⁻¹. For the same molecule, the kon in assay [9] turned out to be 100000 M⁻¹ s⁻¹.

B2: humanized MAb E3 (antibody, V domains shown)
VH: B1 VH
VL: B1 VL
Take B2: the “occupancy of accessible antibody sites on the virion at neutralization” value (from here on “occupancy of accessible antibody sites”) in assay [11] stood at 66%. Further, the “PRNT50 titer” value in assay [3] was found to be 0.93 nM; in assay [12] it was 0.21 nM; in assay [13], 0.14 nM; in assay [14], 0.71 nM; in [15], 0.36 nM. Further, the “PRNT50” value in assay [16] was 0.09 µg/mL. For the same molecule, the “PRNT50 (µg/ml) of MAb 1 alone” value in assay [17] came out at 0.09 µg/mL. Moreover, binding in assay [10] was put at a Kd of 0.31 nM.

B3: Fab B2 (Fab, V domains shown)
VH: VQLLEQSGSEVKKPGASVKVSCKASGYPFTDYAMSWVRQAPGQGLEYMGWIFTNSGNPTYAPGFAGRFVFSLDISVNTAYLHIDSLKPEDTAVYYCARGIVTPAASGDYFDSWGQGTLVTVSS
VL: ELVLTQSPSSLSASIGDRVTITCRASQHISSWLAWYQQKPGKAPKPLIYAASSLKSGVPSRFSGSGSGTDFTLTISGLQPEDFATYYCQQYENSPVTFGGGTKVEIKR
Take B3: the Kd in assay [18] is 0.15 nM; in assay [9] it was 110 nM; in [10], 0.28 nM. Besides, the “PRNT50 titer” value in assay [1] and in [3] was 0.25 nM throughout. In addition, the “PRNT50” value in assay [2] stood at 0.25 nM. For the same molecule, the “fold faster off-rate than Fab A3 or E3” value in assay [19] was over 120 fold. The “fold weaker Kd than Fab A3 or E3” value in assay [19] was over 150 fold. In addition, the figures for the “ELISA titer (1/log10 dilution)” value in assay [4], in assay [5] and in assay [7] were under 1 log10 reciprocal dilution, under 1 log10 reciprocal dilution and 4.2 log10 reciprocal dilution, respectively. The binding result in [4], in assay [5] and in [6] was “no binding” each time. The EC50 in assay [8] is about 0.5 nM. In addition, the koff in assay [9] turned out to be 0.0046 s⁻¹. For the same molecule, the kon in assay [9] stood at 42000 M⁻¹ s⁻¹.

B4: humanized MAb B2 (antibody, V domains shown)
VH: B3 VH
VL: B3 VL
With B4, the “occupancy of accessible antibody sites” value in assay [11] is about 28%. Besides, the “PRNT50 titer” value stood at 0.03 nM in assay [3]; 0.02 nM in assay [12]; 0.02 nM in assay [13]; 0.02 nM in [14]; 2 nM in assay [15]. For the same molecule, the “PRNT50” value in [16] was 0.005 µg/mL. In assay [17], the “PRNT50 (µg/ml) of MAb 1 alone” value was 0.005 µg/mL. In assay [10], this molecule displayed a Kd of 0.08 nM.

B5: Fab A3 (Fab, V domains shown)
VH: EVQLLESGAEVKKPGSSVRISCKVSGTPYSSYVMNWVRQAPGQGLEWMGVFVPSLDRALYAQNFQGRLSITADTTTTYMELTSLKFEDTAVYYCATDFSVGWLRPLDRWGQGTLVTVSS
VL: ELQMTQSPSSLSASVGDRVTITCRASQGISNYLAWYQQKPGKAPKLLIYYASRLESGVPSRFSGSGSGTDYTLTISSLQPEDFATYYCQQYNSNPFTFGPGTKVDIKR
Regarding B5, the “PRNT50 titer” value in [1] and in assay [3] was 2.55 nM in each case. Besides, in [2], the “PRNT50” value worked out at 2.55 nM. For the same molecule, the “ELISA titer (1/log10 dilution)” value in assay [4] is under 1 log10 reciprocal dilution; in [5] it was under 1 log10 reciprocal dilution; in assay [7], 4.7 log10 reciprocal dilution. Besides, the binding result in [4], in [5] and in assay [6] was “no binding” throughout. Also, the EC50 in assay [8] is about 10 nM. The Kd in [9] was determined as 0.72 nM; in assay [10] it was 0.45 nM. Also, in [9], the koff amounted to 2.8e-05 s⁻¹. In [9], the kon amounted to 40000 M⁻¹ s⁻¹.

B6: humanized MAb A3 (antibody, V domains shown)
VH: B5 VH
VL: B5 VL
On to B6, for which the “occupancy of accessible antibody sites” value in assay [11] is 45%. Further, the “PRNT50 titer” value in [3] came out at 0.2 nM; in assay [12], 0.04 nM; in assay [13] it was 0.04 nM; in [14], 0.2 nM; in assay [15], 0.07 nM. For the same molecule, the “PRNT50” value in assay [16] is 0.04 µg/mL. The “PRNT50 (µg/ml) of MAb 1 alone” value in assay [17] is 0.04 µg/mL. Moreover, the Kd in assay [10] was 0.15 nM.

These data come from patent publication US20110033462A1 (published 2011).
